Assay results published in patent US20050080013A1 (Pfizer, published 2005).
Non-standard residues stand in square brackets, D forms with d. Primed or numbered codes have the meaning given here. No end group written: not given here. Orn = NCCC[C@H](N)C(=O)O; Nal″ = naphthylalanine; Aib = CC(C)(N)C(=O)O

T1: lecithin:cholesterol acyltransferase (LCAT), purified from human plasma (human, UniProt P04180 25-440)
T1 sequence (looked up): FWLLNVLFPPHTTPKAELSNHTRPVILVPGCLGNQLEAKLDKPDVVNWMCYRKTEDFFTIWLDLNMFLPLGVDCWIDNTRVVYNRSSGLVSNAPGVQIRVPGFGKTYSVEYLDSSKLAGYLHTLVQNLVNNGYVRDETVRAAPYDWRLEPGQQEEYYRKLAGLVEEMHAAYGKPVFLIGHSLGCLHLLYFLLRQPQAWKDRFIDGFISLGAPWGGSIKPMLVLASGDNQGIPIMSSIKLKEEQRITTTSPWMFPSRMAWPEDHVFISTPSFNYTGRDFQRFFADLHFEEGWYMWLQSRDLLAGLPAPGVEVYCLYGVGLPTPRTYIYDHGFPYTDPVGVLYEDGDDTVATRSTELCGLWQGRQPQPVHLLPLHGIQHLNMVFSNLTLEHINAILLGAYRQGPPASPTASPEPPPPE


target: T1, lecithin:cholesterol acyltransferase …; test: cell-based or functional assay

Row | ACTIVITY (%) LCAT [%] | Binder
1 | 38 | PVLELFLNLWERLLDALQKKLK [peptide 155]
2 | 16 | PVLELFLNLLERLGDALQKKLK [peptide 172]
3 | 57 | PLLELFENLLERLLDALQKKLK [peptide 150]
4 | 30 | PVLEFFENLLERLLDALQKKLK [peptide 157]
5 | 1 | PLLNELLEALKQKLK [peptide 104]
6 | 0 | PVLDEFREKLNEELEWLKQKLK [peptide 122]
7 | 13 | PVLELFENLLERLLELLNKKLK [peptide 175]
8 | 0 | PVLDEFREKLNE[Aib][Aib]EALKQKLK [peptide 110]
9 | 1 | PVLDEFRELLNEELEALKQKLK [peptide 103]
10 | 0 | PVLDLFREKLNEELEALKQKLK [peptide 106]
11 | 0 | PVLDEFREKLNE[Aib]LEALEQKLK [peptide 118]
12 | 39 | PVLELFENLLERGLDALQKKLK [peptide 154]
13 | 28 | PVLELFENLLERLLDWLQKKLK [peptide 160]
14 | 111 | [dP]VLELFENLLERLLDALQKKLK [peptide 144]
15 | 0 | KLKQKLAELLENLLERFLDLVP (all D-amino acids (lower case)) [peptide 107]
16 | 47 | PVLDLFRELLNELLELLKQKLK [peptide 127]
17 | 17 | PVLELFENLLEKLLDALQKKLK [peptide 169]
18 | 0 | PVLDLFRWLLNE[Aib]LEALKQKLK [peptide 108]
19 | 28 | PVLDLFENLLERLLDALQKKLK [peptide 159]
20 | 15 | PVLDLFDNLLDRLLDLLNKKLK [peptide 173]
21 | 49 | AVLELFENLLERLLDALQKKLK [peptide 153]

Row | ACTIVITY (%) LCAT [%] | Binder
22 | 0 | PVLDEFREKLNEPLEALKQKLK [peptide 113]
23 | 50 | PVFELFENLLERLLDALQKKLK [peptide 152]
24 | 18 | PVLELFENGLERLLDALQKKLK [peptide 167]
25 | 0 | PELDEFREKLNE[Aib]LEALKQKLK [peptide 117]
26 | 0 | PKLDEFREKLNE[Aib]LEALKQKLK [peptide 115]
27 | 60 | PVLDLFRELWNELLEALKQKLK [peptide 15]
28 | 0 | PVLDEFREKLNEELEALWQKLK [peptide 121]
29 | 72 | PVLDLFKELLQELLEALKQKLK [peptide 11]
30 | 0 | PVLDEFREKLNEELEA[Aib]KQKLK [peptide 119]
31 | 0 | PVLDEFREKLNE[Aib]SEALKQKLK [peptide 112]
32 | 0 | PVLDEFREKLWE[Aib]WEALKQKLK [peptide 111]
33 | 0 | PVLDEFREKLNEELE[Aib]LKQKLK [peptide 120]
34 | 17 | PVLELFEQLLEKLLDALQKKLK [peptide 168]
35 | 61 | PVLDLFRELLNELLEALXQXLX (Orn (O) at 18, 20, 22) [peptide 14]
36 | 17 | PVLELFENLLE[Orn]LLDALQ[Orn][Orn]L[Orn] [peptide 170]
37 | 30 | PVLELFLNLLERLLDWLQKKLK [peptide 158]
38 | 79 | PVLDLFRELLNELLEA[Nal″]KQKLK [peptide 10]
39 | 0 | PVLDEFREKLNERLEALKQKLK [peptide 109]
40 | 27 | PVLELFENLLERLLEALQKKLK [peptide 161]
41 | 0 | PVLDEFREKLNE[Aib]MEALKQKLK [peptide 114]
42 | 1 | PAADAFREAANEAAEAAKQKAK [peptide 105]

Row | ACTIVITY (%) LCAT [%] | Binder
43 | 76 | PVLELFENLLERLFDALQKKLK [peptide 147]
44 | 86 | PVLELFENLLERLLDALQKKLK [peptide 146]
45 | 22 | PVLELFLNLLEKLLDALQKKLK [peptide 166]
46 | 35 | PVLELFLNLLERLLDALQKKLK [peptide 156]
47 | 75 | PVLELFENLLERLGDALQKKLK [peptide 148]
48 | 70 | PVLDLFRELLNELLEAGKQKLK [peptide 12]
49 | 26 | PVLELFENLLERLWDALQKKLK [peptide 163]
50 | 100 | GVLELFENLLERLLDALQKKLK [peptide 145]
51 | 55 | PVLELFENLGERLLDALQKKLK [peptide 151]
52 | 23 | PVLELFENLLERLLDLLQKKLK [peptide 165]
53 | 16 | PVLELFENLLEKLLDLLQKKLK [peptide 171]
54 | 11 | PVLELWENLLERLLDALQKKLK [peptide 176]
55 | 120 | PVLDLFRELLNELLE[Nal″]LKQKLK [peptide 1]
56 | 13 | [dP][dV][dL][dE][dL][dF][dE][dN][dL][dL][dE][dR][dL][dL][dD][dA][dL][dQ][dK][dK][dL][dK] [peptide 174]
57 | 0 | PHLDEFREKLNE[Aib]LEALKQKLK [peptide 116]
58 | 27 | PVLELFENWLERLLDALQKKLK [peptide 162]
59 | 63 | PVLELFENLWERLLDALQKKLK [peptide 149]
60 | 67 | GVLDLFRELLNEGLEALKQKLK [peptide 13]
61 | 24 | PVLELFENLLERLLDAWQKKLK [peptide 164]
